Square brackets hold non-standard residues; d marks the D form. Ends that are not written are not given here. Peptide text beside a SMILES is read from it. * marks the point of attachment. F2Pmp = N[C@@H](Cc1ccc(C(F)(F)P(=O)(O)O)cc1)C(=O)O; Bz = O=C(c1ccccc1)*

Experiment [1] has as its target T1, PTP1B (Homo sapiens, UniProt P18031).
T1 sequence (P18031 1-435): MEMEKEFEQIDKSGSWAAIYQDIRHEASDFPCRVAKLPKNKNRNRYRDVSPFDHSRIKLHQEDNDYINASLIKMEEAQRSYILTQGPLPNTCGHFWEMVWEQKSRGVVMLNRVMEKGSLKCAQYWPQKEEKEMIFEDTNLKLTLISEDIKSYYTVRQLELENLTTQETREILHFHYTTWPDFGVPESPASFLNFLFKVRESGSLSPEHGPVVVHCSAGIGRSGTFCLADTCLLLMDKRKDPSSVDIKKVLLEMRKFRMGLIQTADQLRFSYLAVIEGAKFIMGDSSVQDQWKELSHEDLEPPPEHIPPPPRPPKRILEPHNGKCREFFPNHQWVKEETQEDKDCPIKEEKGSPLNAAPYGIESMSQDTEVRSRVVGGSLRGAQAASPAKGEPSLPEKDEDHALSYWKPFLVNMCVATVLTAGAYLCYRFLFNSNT
Description: inhibition of PTP1B (stated in text, method not given). It is filed as biochemical. The settings on record: read-out: active inhibitor of PTP1B (potency, type not given).

Experiment [2] has as its target T2, GST-PTP1B Non-Mutated (Cys215) (Homo sapiens, UniProt P18031).
T2 construct: made in house; host or cells: E. coli
T2 sequence (P18031 1-320): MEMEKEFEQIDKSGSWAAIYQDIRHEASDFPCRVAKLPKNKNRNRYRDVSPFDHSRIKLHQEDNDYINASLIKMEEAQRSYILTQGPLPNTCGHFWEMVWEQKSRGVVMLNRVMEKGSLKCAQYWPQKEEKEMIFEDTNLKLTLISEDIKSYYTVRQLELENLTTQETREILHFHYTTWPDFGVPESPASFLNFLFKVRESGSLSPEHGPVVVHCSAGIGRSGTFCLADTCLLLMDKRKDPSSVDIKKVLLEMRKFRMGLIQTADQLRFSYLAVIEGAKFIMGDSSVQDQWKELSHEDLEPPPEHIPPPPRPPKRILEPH
Description: GST-PTP1B SPA binding assay, non-mutated (Cys215) enzyme; competition with tritiated BzN-EJJ-CONH2. The settings on record: for IC50: non-mutated (Cys215) GST-PTP1B. On the procedure:
(§1) Enzyme: Human recombinant PTPLB, containing ammo acids 1-320, (Seq. ID No. 1) fused to GST enzyme (glutathione S-transferase) purified by affinity chromatography. Wild type (Seq. ID No. 1) contains active site cysteine(215), whereas mutant (Seq. ID No. 7) contains active site serine(215).
(§2) Tritiated peptide: Bz-NEJJ-CONH2, Mwt. 808, empirical formula, C32H32T2O12P2F4
(§3) To each well is added the following solutions @ 25° C. in the following chronological order:
(§4) 1. 110 μl of assay buffer.
(§5) 2. 10 μl. of 50 nM tritiated BzN-EJJ-CONH2 in assay buffer (1X) @ 25° C.
(§6) 3. 10 μl. of testing compound in DMSO at 10 different concentrations in serial dilution (final DMSO, about 5% v/v) in duplicate @ 25° C.
(§7) 4. 10 μl. of 3.75 μg/ml purified human recombinant GST-PTP1B in enzyme dilution buffer.
(§8) 5. The plate is shaken for 2 minutes.
(§9) 6. 10 μl. of 0.3 μg/ml anti-glutathione S-transferase (anti-GST) rabbit IgG (Molecular Probes) diluted in antibody dilution buffer @ 25° C.
(§10) 7. The plate is shaken for 2 minutes.
(§11) 8. 50 μl. of protein A-PVT SPA beads (Amersham) @ 25° C.
(§12) 9. The plate is shaken for 5 minutes. The binding signal is quantified on a Microbeta 96-well plate counter.
(§13) 10. The non-specific signal is defined as the enzyme-ligand binding in the absence of anti-GST antibody.
11. 100% binding activity is defined as the enzyme-ligand binding in the presence of anti-GST antibody, but in the absence of the testing ligands with the non-specific binding subtracted.
12. Percentage of inhibition is calculated accordingly.
13. IC50 value is approximated from the non-linear regression fit with the 4-parameter/multiple sites equation (described in: “Robust Statistics”, New York, Wiley, by P. J. Huber (1981) and reported in nM units.

Experiment [3] addresses T3, GST-PTP1B Mutated enzyme (Ser215) (Homo sapiens, UniProt P18031, C215S).
T3 construct: made in house; host or cells: bacteria (DH5α named for the transformation; E. coli stated for the wild-type fusion)
T3 sequence (P18031 1-320 C215S): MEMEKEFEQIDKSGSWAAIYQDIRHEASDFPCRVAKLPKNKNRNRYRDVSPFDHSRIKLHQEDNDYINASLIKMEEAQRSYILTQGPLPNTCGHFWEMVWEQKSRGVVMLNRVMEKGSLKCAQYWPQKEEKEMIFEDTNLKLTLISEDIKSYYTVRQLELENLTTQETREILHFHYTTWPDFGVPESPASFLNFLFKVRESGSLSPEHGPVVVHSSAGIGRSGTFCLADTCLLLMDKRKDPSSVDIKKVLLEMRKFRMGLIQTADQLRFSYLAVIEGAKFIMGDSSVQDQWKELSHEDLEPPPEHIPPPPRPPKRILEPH
The experiment can be described thus: GST-PTP1B SPA binding assay, mutated (Ser215) enzyme; competition with tritiated BzN-EJJ-CONH2. The method, then: as §1, §2, §3, §4, §5, §6, §7, §8, §9, §10, §11, §12, §13
11. […]
12. Percentage of inhibition is calculated accordingly. […]

The target of experiment [4] is Human recombinant PTP1B, containing amino acids 1-320, Cys215Ser mutant, fused to GST enzyme (glutathione S-transferase) (human) (UniProt P18031). Description: SPA raw counts, mutant GST-PTP1B with tritiated BzN-EJJ-CONH2, anti-GST antibody present, no cold tripeptide, second duplicate.
Experiment [5] has the same target. Description: SPA raw counts, mutant GST-PTP1B with tritiated BzN-EJJ-CONH2, no anti-GST antibody, no cold tripeptide, first duplicate.
For experiment [6] the target is unchanged. Description: SPA raw counts, mutant GST-PTP1B with tritiated BzN-EJJ-CONH2, anti-GST antibody present, no cold tripeptide, first duplicate.
For experiment [7] the target is unchanged. Description: SPA raw counts, mutant GST-PTP1B with tritiated BzN-EJJ-CONH2, no anti-GST antibody, no cold tripeptide, second duplicate.
Experiment [8] has the same target. The experiment can be described thus: GST-PTP1B SPA binding assay, competition with tritiated BzN-EJJ-CONH2, mutated (Ser215) enzyme.
Experiment [9] shares this target. The experiment can be described thus: SPA raw counts of bound tritiated BzN-EJJ-CONH2 on mutant GST-PTP1B with cold tripeptide, second duplicate; number split over r12 and r13.
Experiment [10] concerns the target Human recombinant PTP1B, containing amino acids 1-320, fused to GST enzyme (glutathione S-transferase), wild type (active site cysteine 215) (human) (UniProt P18031). The experiment can be described thus: GST-PTP1B SPA binding assay, competition with tritiated BzN-EJJ-CONH2, non-mutated (Cys215) enzyme.
For experiment [11], the target named is Human recombinant PTP1B, containing amino acids 1-320, Cys215Ser mutant, fused to GST enzyme (glutathione S-transferase) (human) (UniProt P18031). Description: SPA raw counts of bound tritiated BzN-EJJ-CONH2 on mutant GST-PTP1B with cold tripeptide, first duplicate; number split over r10 and r11.
In experiment [12] the target is T4, Human recombinant PTP1B, containing amino acids 1-320, Cys215Ser mutant, fused to GST enzyme (glutathione … (human, UniProt P18031 1-320)).
T4 construct: ID No. 7 (cDNA); the protein in the assay has Ser at 215; also called GST-PTP-1B Cys215Ser mutant; mutant GST-PTP1B; not shown: N-terminal glutathione S-transferase carrier and the pGEX-2T linker residues
T4 sequence: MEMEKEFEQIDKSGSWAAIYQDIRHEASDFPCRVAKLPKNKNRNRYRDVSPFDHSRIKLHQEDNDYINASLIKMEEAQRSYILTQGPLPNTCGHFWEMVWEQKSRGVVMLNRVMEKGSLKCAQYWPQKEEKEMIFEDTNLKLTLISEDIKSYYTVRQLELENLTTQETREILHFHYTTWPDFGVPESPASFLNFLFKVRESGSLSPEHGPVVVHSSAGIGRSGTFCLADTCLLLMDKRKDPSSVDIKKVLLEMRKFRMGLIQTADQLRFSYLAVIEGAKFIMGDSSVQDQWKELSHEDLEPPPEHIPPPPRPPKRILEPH
Description: GST-PTP1B SPA binding assay, competition with tritiated BzN-EJJ-CONH2, mutated (Ser215) enzyme.

The target in experiment [13] is T5, Human recombinant PTP1B, containing amino acids 1-320, fused to GST enzyme (glutathione S-transferase), wild … (human, UniProt P18031 1-320).
T5 construct: ID No. 1, which is the DNA strand; GST is N-terminal (pGEX-2T); also called GST-PTP1B; GST-PTP-1B fusion protein; not shown: N-terminal glutathione S-transferase carrier and the pGEX-2T linker residues
T5 sequence: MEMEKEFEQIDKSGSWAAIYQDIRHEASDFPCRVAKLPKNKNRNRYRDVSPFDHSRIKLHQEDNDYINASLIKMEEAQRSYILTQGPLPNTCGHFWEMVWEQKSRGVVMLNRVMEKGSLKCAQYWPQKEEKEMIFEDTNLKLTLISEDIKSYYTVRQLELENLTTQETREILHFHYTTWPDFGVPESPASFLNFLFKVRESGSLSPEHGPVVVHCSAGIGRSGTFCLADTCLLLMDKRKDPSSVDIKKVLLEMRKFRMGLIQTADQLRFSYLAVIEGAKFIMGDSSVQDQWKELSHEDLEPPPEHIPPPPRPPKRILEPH
Description: GST-PTP1B SPA binding assay, competition with tritiated BzN-EJJ-CONH2, non-mutated (Cys215) enzyme. On the procedure:
1. 110 μl of assay buffer. 2. 10 μl. of 50 nM tritiated BzN-EJJ-CONH_2 in assay buffer (1X) @ 25° C. 3. 10 μl. of testing compound in DMSO at 10 different concentrations in serial dilution (final DMSO, about 5% v/v) in duplicate @ 25° C. 4. 10 μl. of 3.75 μg/ml purified human recombinant GST-PTP1B in enzyme dilution buffer. 5. The plate is shaken for 2 minutes. 6. 10 μl. of 0.3 μg/ml anti-glutathione S-transferase (anti-GST) rabbit IgG (Molecular Probes) diluted in antibody dilution buffer @ 25° C. 7. The plate is shaken for 2 minutes. 8. 50 μl. of protein A-PVT SPA beads (Amersham) @ 25° C. 9. The plate is shaken for 5 minutes. The binding signal is quantified on a Microbeta 96-well plate counter. 10. The non-specific signal is defined as the enzyme-ligand binding in the absence of anti-GST antibody. 11. 100% binding activity is defined as the enzyme-ligand binding in the presence of anti-GST antibody, but in the absence of the testing ligands with the non-specific binding subtracted. 12. Percentage of inhibition is calculated accordingly.

For `NC(=O)[C@H](Cc1ccc(C(F)(F)P(=O)(O)O)cc1)NC(=O)[C@H](Cc1ccc(C(F)(F)P(=O)(O)O)cc1)NC(=O)[C@H](CCC(=O)O)NC(=O)c1ccccc1` [Example 1, N-Benzoyl-L-glutamyl-[4-phosphono(difluoromethyl)]-L-phenylalanyl-[4-phosphono(difluoromethyl)]-L-phenlalanine Amide] (Bz-Glu-[F2Pmp]-[F2Pmp]-NH2), the IC50 in experiment [1] was found to be 5 nM; in experiment [2] it was 14 nM.
Usually inhibition stands for the drop in the measured response relative to a control, in per cent. A low value points to a weak effect. Take `COc1cc(OC)c(OC)cc1CC/N=C\Cc1ncc[nH]1` [Imine, reference compound]: the inhibition at 2 µM in experiment [3] (at 2 μM, mutated (Ser215)) was determined as 10%; in experiment [2] (at 2 μM, non-mutated (Cys215)), 67%.
Take `Cc1cc(Cl)c2c(c1O)C(=O)C=CC2=O` [Quinone, reference compound]: the IC50 in experiment [3] (mutated (Ser215) GST-PTP1B) was > 100000 nM; in [2] it was 4000 nM.
Turning to “N-(3,5-Ditritio)benzoyl-L-glutamyl-[4-phosphono(difluoromethyl)]-L-phenylalanyl-[4-phosphono(difluoromethyl)]-L-phenylalanineamide (peptide)”, the Counts (dpm), antibody (+ control), no competitor in experiment [4] amounted to 6380 dpm; in experiment [6], 5650 dpm. Also, the Counts (dpm), no antibody (- control), non-specific signal in [5] is 252 dpm; in [7] it was 304 dpm.
For the molecule “N-Benzoyl-L-glutamyl-[4-phosphono(difluoromethyl)]-L-phenylalanyl-[4-phosphono(difluoromethyl)]-L-phenylalanineamide (peptide)”, the IC50 in experiment [8] was 8 nM. Also, in [9], the Counts (dpm) at 62.5 nM tripeptide was determined as 1110 dpm, the Counts (dpm) at 125 nM tripeptide was determined as 588 dpm and the Counts (dpm) at 250 nM tripeptide amounted to 273 dpm. In experiment [10], the IC50 worked out at 14 nM. Moreover, in experiment [11], the Counts (dpm) at 125 nM tripeptide is 873 dpm and the Counts (dpm) at 250 nM tripeptide stood at 288 dpm.

B1: DADE(F2PMP)L hexapeptide (T. Burke et al. Biochem. Biophys. Res. Comm. 204, 129, (1994)) (peptide)
peptide: DADE[F2Pmp]L
notes: Terminal caps, if any, stand only in a structure drawing that is not in the text; also called hexamer peptide containing the phosphotyrosyl mimetic F2Pmp
Turning to B1, the results for the IC50 in experiment [12] and in experiment [13] were 100 nM and 400 nM, respectively.

These data come from patent publication US6348572B1, “Ligands for phosphatase binding assay” (Merck Frosst Canada & Co., priority 1996, dated 2002).
